Assay results reported in patent US20140287985A1, “NOVEL USES OF ELAFIN” (Proteo Biotech AG, priority 2010, published 2014).

Tests used:
human leukocyte elastase = biological target: T1, human leukocyte elastase (Homo sapiens, UniProt P08246); experiment: Inhibition of leukocyte elastase (Ki); assay type: biochemical
T1 sequence (P08246 30-267): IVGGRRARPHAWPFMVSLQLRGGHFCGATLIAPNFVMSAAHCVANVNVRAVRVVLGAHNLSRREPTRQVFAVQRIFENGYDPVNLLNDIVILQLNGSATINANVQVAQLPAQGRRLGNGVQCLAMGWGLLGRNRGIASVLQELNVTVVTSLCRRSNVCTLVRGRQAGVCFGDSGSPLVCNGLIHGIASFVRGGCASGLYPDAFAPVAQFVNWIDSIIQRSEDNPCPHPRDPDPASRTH
Excerpt: The invention generally relates to novel uses of polypeptides comprising the sequence depicted in SEQ ID NO: 1 or homologue, derivatives, or fragments of the sequence depicted in SEQ ID NO: 1, for the treatment of medical conditions for which a use of […] has not yet been contemplated. […] Experiments for measuring the activity of leukocyte elastase and its inhibition can be conducted by the method described in European Patent EP 0 402 068. As used herein, the term “homologue” refers to peptides or polypeptides which share a substantial degree of homology on the amino acid level with the sequence of SEQ ID NO: 1 over a certain stretch of its primary structure. In particular, the term “homologue” relates to polypeptides having a sequence (or comprising such sequence) which differs from the sequence depicted in SEQ ID NO: 1 by the substitution (or deletion) of one or more single amino acids. Generally, any amino acid from the sequence depicted in SEQ ID NO: 1 can be deleted or substituted against another amino acid as long as the inhibitory activity of the polypeptide is not lost. Further polypeptides are also included which differ from the sequence of SEQ ID NO: 1 by the insertion of one or more additional amino acids. “One or more” in the above context always refers to 1-50, preferably 1-20, even more preferably 1-10, most preferably 1-5. […]

[1] = Plasma Elafin levels (ELISA) in patients undergoing esophagectomy; assay type: in vivo, human
Experimental: Blood samples were removed at the intervals indicated and plasma was prepared and stored frozen at −20° C. Plasma Elafin levels were measured using an ELISA.

serum elastase [2] = biological target: T2, serum elastase (Homo sapiens, UniProt P08246); experiment: Serum elastase activity (photometric assay) in patients undergoing esophagectomy; assay type: in vivo; conditions: 200 mg i.v. over 30 min, beginning 15 min before surgery
T2 construct: from tissue; host or cells: human serum
T2 sequence (P08246 30-267): T1 sequence (P08246 30-267)
Experimental: Blood samples were removed at the intervals indicated and serum was prepared and stored frozen at −20° C. Serum elastase activity was determined using a photometric assay.

IL-6 = experiment: Serum IL-6 2 h after esophagectomy (immunoassay); assay type: in vivo, human; conditions: 200 mg i.v.; 2 h postoperatively; versus placebo
Experimental: Blood samples were taken 2 h after finishing surgery and serum was prepared. The serum level of IL-6 was measured using a routine immunoassay (“Immulite, IL-6”, available from Siemens Medical Solution Diagnostics).

IL-8 = experiment: Serum IL-8 6 h after esophagectomy (ELISA); assay type: in vivo, human; conditions: 200 mg i.v.; 6 h postoperatively; versus placebo
Experimental: Blood samples were taken 6 h after finishing surgery and serum was prepared. The serum level of IL-8 was measured using a commercially available ELISA, (“Immulite, IL-8”, available from Siemens Medical Solution Diagnostics).

CRP = conditions: 200 mg i.v.; first postoperative day; versus placebo
Experimental: Patients undergoing esophagectomy for esophagus carcinoma were administered either 200 mg Elafin in 250 mL physiological saline (verum) or 250 mL saline (placebo) i.v. over a period of 30 min beginning 15 min before the commencement of surgery. Serum was prepared from blood samples which were taken on admission and on the day after surgery. The serum levels of CRP were measured using a commercially available ELISA. (CRPL 3, cobas®, available from Roche/Hitachi).

[3] = Period of postoperative intensive care (ICU) after esophagectomy; assay type: in vivo, human; conditions: 200 mg i.v.
Excerpt: After surgery all patients were routinely admitted to the intensive care unit (ICU) at least overnight. Patients were maintained in the ICU for as long as the treating physician considered necessary.

[4] = biological target: T3, leukocyte elastase activity in the serum (Homo sapiens, UniProt P08246); experiment: Phase I: serum elastase activity after single intravenous infusion in healthy male volunteers; assay type: in vivo
T3 construct: from tissue; host or cells: human serum (ex vivo, after in vivo dosing of Elafin)
T3 sequence (P08246 30-267): T1 sequence (P08246 30-267)
Experimental: In order to assess the potential pharmacological effect of administered Elafin the inhibition of leukocyte elastase activity in the serum was measured.
The data presented in FIG. 7 were obtained in a Phase I clinical trial.
Within each dosage group the median elastase activity is shown relative to the predose value at t=0 min.

[5] = Plasma Elafin levels (ELISA) after subcutaneous injection in a healthy human volunteer; assay type: in vivo; conditions: 100 mg subcutaneously, n = 1
Experimental: 100 mg of Elafin physiological saline were injected subcutaneously into the abdomen of a healthy human volunteer. Blood samples were removed at the times indicated in FIG. 9 and plasma prepared and stored at −20° C. The plasma Elafin levels were measured using an ELISA.

serum elastase [6] = biological target: T2, serum elastase; experiment: Serum elastase activity after subcutaneous injection in a healthy human volunteer; assay type: in vivo; conditions: 100 mg subcutaneously; within the first 30 min-4 hours
Experimental: 100 mg of Elafin in physiological saline were injected subcutaneously into the abdomen of a healthy human volunteer. Blood samples were removed at the times indicated in FIG. 10 and serum prepared and stored at −20° C.

[7] = Stability of Elafin to sterilization, quantified by HPLC; assay type: physicochemical
Experimental: (§1) Lyophilized samples of 300 μg Elafin were sterilized either by heat sterilization or by ethylene oxide sterilization in a suitable standard sterile packing material. After sterilization, samples were dissolved in 300 μl distilled water. Elafin was quantified by HPLC (reverse phase C8-separation medium) and by determination of elastase inhibitory activity.

elastase = experiment: Stability of Elafin to sterilization, elastase inhibitory activity; assay type: biochemical
Experimental: as §1

rats = experiment: Biocompatibility: 14 days continuous intravenous infusion in rats; assay type: in vivo
Experimental: Rats were treated with up to 100 mg elafin/kg/day over a period of 14 days by continuous intravenous infusion.

Pseudomanae aeruginosa = conditions: cited from earlier work
Staphylococcus aureus = conditions: cited from earlier work
[8] = Phase I: plasma Elafin concentrations (ELISA) after single intravenous infusion in healthy male volunteers
Experimental: Each dose was administered to 6 individuals. After Elafin administration blood samples were taken at the indicated times from each volunteer and the plasma prepared and frozen to −20° C. Elafin in the plasma samples was quantified using an ELISA.

[9] = rats, up to 100 mg/kg/day, 14 days continuous i.v. infusion

Substance: Elafin: Human anti-protease polypeptide of 57 amino acids, about 6 kDa (SEQ ID NO: 1); reversible inhibitor of neutrophil elastase and proteinase 3 (AQEPVKGPVSTKPGSCPIILIRCAMLNPPNRCLKDTDCPGIKKCCEGSCGMACFVPQ; listed as Homo sapiens)
- Ki (human leukocyte elastase): ~0.1 nM
- half life estimated from plasma levels in esophagectomy patients ([1]; 200 mg i.v. at the beginning of surgery): at most 2 h
- period of significant plasma Elafin concentrations after the end of the operation ([1]; 200 mg i.v. over 30 min, beginning 15 min before surgery): up to 6 h
- serum elastase activity during the period of surgery (serum elastase [2]): markedly reduced
- serum elastase activity in the course of the subsequent 3 postoperative days (serum elastase [2]): recovered to slightly less than the preoperative level
- diminution of postoperative increase in serum IL-6 (IL-6): about 80%
- diminution of postoperative increase in serum IL-8 (IL-8): about 70%
- diminution of postoperative increase in serum CRP (CRP): about 70%
- period of postoperative ICU care required ([3]; compared with placebo): significant reduction
- reduction of necessity for intensive care ([3]; meaning of 'significant reduction' (at least 25% or one day)): at least 25%
- Median t50% (duration of serum elastase inhibition to a threshold level of 50%) ([4]; 20 mg i.v.): 40 min
- Median t50% (duration of serum elastase inhibition to a threshold level of 50%) ([4]; 200 mg i.v.): 480 min
- Median t50% (duration of serum elastase inhibition to a threshold level of 50%) ([4]; 400 mg i.v.): 720 min
- period of pharmacologically relevant elastase inhibition ([4]; doses of 100-400 mg i.v.): up to 720 min
- inhibition of serum elastase ([4]; single i.v. infusion over 30 min, various doses): rapid and potent inhibition
- time of peak plasma concentration after administration [5]: about 60 min
- inhibition of serum elastase activity (serum elastase [6]): potent inhibition
- HPLC (Elafin quantified) ([7]; Control (room temperature)): 108 µg
- HPLC (Elafin quantified) ([7]; Ethylene oxide sterilization): 100 µg
- HPLC (Elafin quantified) ([7]; Heat sterilization): 0 µg
- Inhibitory activity (elastase; Control (room temperature)): 100%
- Inhibitory activity (elastase; Ethylene oxide sterilization): 101%
- Inhibitory activity (elastase; Heat sterilization): −19- %
- side effects (rats; intravenously to rats): without any side effects
- body weight (rats; [9]): Neither food consumption nor body weight was influenced
- clinical signs of haemolysis or cytotoxicity in skin, eyes, mucous membranes, lungs and circulation (rats; [9]): no clinical signs of haemolysis or cytotoxicity were observed
- food consumption (rats; [9]): Neither food consumption nor body weight was influenced
- mortality (rats; [9]): No mortality
- kill Pseudomanae aeruginosa (Pseudomanae aeruginosa): kill
- kill Staphylococcus aureus (Staphylococcus aureus): kill
- half-life of elafin in plasma ([8]; on average): 1.92 h
- mode of elimination from plasma ([8]; single i.v. infusion, healthy volunteers): eliminated in two first-order processes
